Literature values, collected in publication PMC5548488.

Molecular target: CAST/ELKS (UniProt Q8K3M6)
UniProt Q8K3M6, sequence (Q8K3M6 whole entry): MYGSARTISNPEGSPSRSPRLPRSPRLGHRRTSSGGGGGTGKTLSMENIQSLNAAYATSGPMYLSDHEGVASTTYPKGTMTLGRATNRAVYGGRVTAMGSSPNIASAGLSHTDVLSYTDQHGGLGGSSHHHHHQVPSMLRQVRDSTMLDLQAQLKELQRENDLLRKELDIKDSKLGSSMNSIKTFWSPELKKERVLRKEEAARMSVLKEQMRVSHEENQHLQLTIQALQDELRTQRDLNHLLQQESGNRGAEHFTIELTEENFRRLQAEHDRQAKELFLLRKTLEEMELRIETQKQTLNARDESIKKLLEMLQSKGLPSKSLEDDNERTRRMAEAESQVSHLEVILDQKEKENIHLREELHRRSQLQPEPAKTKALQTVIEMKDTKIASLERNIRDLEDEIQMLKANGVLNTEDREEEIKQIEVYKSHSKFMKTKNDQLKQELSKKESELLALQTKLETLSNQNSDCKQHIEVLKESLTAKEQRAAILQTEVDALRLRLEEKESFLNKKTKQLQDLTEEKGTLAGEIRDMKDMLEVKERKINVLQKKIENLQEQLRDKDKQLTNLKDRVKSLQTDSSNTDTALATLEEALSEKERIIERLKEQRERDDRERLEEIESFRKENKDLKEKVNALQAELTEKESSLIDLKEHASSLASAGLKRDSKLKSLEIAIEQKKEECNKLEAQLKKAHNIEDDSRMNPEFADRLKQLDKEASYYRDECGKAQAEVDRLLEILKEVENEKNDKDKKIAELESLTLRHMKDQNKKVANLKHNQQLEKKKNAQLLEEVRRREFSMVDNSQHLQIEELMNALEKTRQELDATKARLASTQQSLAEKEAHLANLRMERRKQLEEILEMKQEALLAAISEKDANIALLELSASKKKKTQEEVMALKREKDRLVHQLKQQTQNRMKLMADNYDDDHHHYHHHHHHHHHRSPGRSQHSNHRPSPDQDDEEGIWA

Kd: 200 nM
Substance: RIM PDZ (from UniProt Q86UR5)
